Source: patent publication US20110059851A1 (MOUNT SINAI SCHOOL OF MEDICINE OF NEW YORK UNIVERSITY, published 2011)

Target: T1, V5-tagged SHOC2^S2G (human SHOC2 Ser2Gly mutant) (human, UniProt Q5RAV5 1-582 (Pongo abelii entry), limits assumed, N-myristoylation at the N-terminal glycine (Gly 2) after excision of the initiator methionine; [3H]myristic acid incorporation shown in Cos-1 cells)
T1 construct: Expressed transiently in Cos-1 cells, with human NMT1 co-transfected, from a V5-tagged human SHOC2 cDNA construct made by site-directed mutagenesis; Tested in cell lysates by co-immunoprecipitation; also called mutant SHOC2; not shown: V5 tag
T1 sequence: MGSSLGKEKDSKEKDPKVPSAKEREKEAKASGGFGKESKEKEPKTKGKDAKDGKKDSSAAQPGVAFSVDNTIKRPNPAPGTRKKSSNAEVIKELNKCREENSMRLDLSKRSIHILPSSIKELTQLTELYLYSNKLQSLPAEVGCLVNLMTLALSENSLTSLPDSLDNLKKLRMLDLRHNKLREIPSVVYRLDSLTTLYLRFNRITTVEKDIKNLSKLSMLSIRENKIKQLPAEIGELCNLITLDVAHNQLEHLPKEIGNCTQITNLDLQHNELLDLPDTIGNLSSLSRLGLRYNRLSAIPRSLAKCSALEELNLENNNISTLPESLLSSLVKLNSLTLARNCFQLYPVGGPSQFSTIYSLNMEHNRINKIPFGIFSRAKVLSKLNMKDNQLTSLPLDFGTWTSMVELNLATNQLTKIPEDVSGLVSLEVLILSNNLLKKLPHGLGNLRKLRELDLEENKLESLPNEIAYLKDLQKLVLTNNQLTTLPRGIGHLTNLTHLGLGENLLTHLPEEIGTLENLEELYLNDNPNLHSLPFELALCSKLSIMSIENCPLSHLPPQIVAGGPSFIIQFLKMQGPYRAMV
Assay: co-immunoprecipitation (anti-Myc or anti-V5, western blot) and confocal microscopy in COS-1 cells co-transfected with V5- and Myc-tagged proteins

binding result: no binding
B1: Myc-tagged SHOC2^wt (wild-type human SHOC2) (other)
chain: MSSSLGKEKDSKEKDPKVPSAKEREKEAKASGGFGKESKEKEPKTKGKDAKDGKKDSSAAQPGVAFSVDNTIKRPNPAPGTRKKSSNAEVIKELNKCREENSMRLDLSKRSIHILPSSIKELTQLTELYLYSNKLQSLPAEVGCLVNLMTLALSENSLTSLPDSLDNLKKLRMLDLRHNKLREIPSVVYRLDSLTTLYLRFNRITTVEKDIKNLSKLSMLSIRENKIKQLPAEIGELCNLITLDVAHNQLEHLPKEIGNCTQITNLDLQHNELLDLPDTIGNLSSLSRLGLRYNRLSAIPRSLAKCSALEELNLENNNISTLPESLLSSLVKLNSLTLARNCFQLYPVGGPSQFSTIYSLNMEHNRINKIPFGIFSRAKVLSKLNMKDNQLTSLPLDFGTWTSMVELNLATNQLTKIPEDVSGLVSLEVLILSNNLLKKLPHGLGNLRKLRELDLEENKLESLPNEIAYLKDLQKLVLTNNQLTTLPRGIGHLTNLTHLGLGENLLTHLPEEIGTLENLEELYLNDNPNLHSLPFELALCSKLSIMSIENCPLSHLPPQIVAGGPSFIIQFLKMQGPYRAMV
notes: Expressed transiently in Cos-1 cells from a Myc-tagged human SHOC2 cDNA construct and tested in cell lysates by co-immunoprecipitation; also called wild type SHOC2; wild-type protein; not shown: Myc tag
